Target: HLA-DR15 (HLA-DRB1*1501) (Homo sapiens, UniProt P01903+P01911)
Assay: Competitive ELISA against biotinylated pp65 (pp65bio) for binding to HLA-DR
Details: pp65bio 150 nM, HLA-DR15 150 nM, non-biotinylated competitor 7.8 nM - 1 μM, HLA-DM 150 nM, PBS, 37°C, 18 h, triplicate, ± SD, read-out: IC50 in competition with pp65bio for HLA-DR15

In the case of “MBP85-97: myelin basic protein peptide 85-97 fused to C-terminus of bacterial thioredoxin through (SGGGG)3S linker with His-tags (PVVHFFKNIVTPR; not fully specified; C-terminal fusion to thioredoxin via (SGGGG)3S linker (left out))”, the IC50 is reported as 120 ± 20 nM.

From paper PMC8084299, “Peculiarities of the Presentation of the Encephalitogenic MBP Peptide by HLA-DR Complexes Providing Protection and Predisposition to Multiple Sclerosis” (Acta Naturae, 2021)
